What was measured:
purified protein [1] = substrate: O=C(O)C(=O)/C=C1\C=C[C@H](O)CC1; experiment: purified protein; assay type: biochemical, Bacillus subtilis; details: 2 mM NADH (saturating), 50 mM potassium phosphate pH 8.0, 1 µM BacG
purified protein [2] = substrate: O=C(O)C(=O)/C=C1/C=C[C@H](O)CC1; experiment: purified protein; assay type: biochemical, Bacillus subtilis; details: 2 mM NADH (saturating), 50 mM potassium phosphate pH 8.0, 5 µM BacG

B1: BacG (Bacillus subtilis subsp. subtilis str. 168) (protein)
chain: MSKRTAFVMGASQGIGKAIALKLADQHFSLVINSRNLDNIESVKEDILAKHPEASVIVLAGDMSDQHTRAGIFQKIESQCGRLDVLINNIPGGAPDTFDNCNIEDMTATFTQKTVAYIDAIKRASSLMKQNEFGRIINIVGNLWKEPGANMFTNSMMNAALINASKNISIQLAPHNITVNCLNPGFIATDRYHQFVENVMKKNSISKQKAEEQIASGIPMKRVGSAEETAALAAFLASEEASYITGQQISADGGSMKSI
Purified protein [1]
  kcat: 71.3 min⁻¹
Purified protein [2]
  kcat: 33.2 min⁻¹
